# Literature values as cited in PMC11430116.
# Target: VDAC1 (Homo sapiens) (UniProt P21796)
# Chain of UniProt P21796 (P21796 2-283): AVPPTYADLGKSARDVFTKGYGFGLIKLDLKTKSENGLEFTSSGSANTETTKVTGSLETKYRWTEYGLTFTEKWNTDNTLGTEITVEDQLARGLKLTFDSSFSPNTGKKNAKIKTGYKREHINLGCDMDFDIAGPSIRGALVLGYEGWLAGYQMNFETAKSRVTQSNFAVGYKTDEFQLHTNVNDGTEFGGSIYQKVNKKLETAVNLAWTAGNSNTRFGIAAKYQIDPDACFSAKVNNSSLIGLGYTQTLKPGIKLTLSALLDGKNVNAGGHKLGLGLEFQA
substance,measurement,value
MAVS (from UniProt Q7Z434),Kd,950 nM
